B2: fly Su(H) (aa 98–523) (domain or fragment)
chain: not shown
notes: Suppressor of Hairless, Drosophila, residues 98-523; also called CSL

Common to all, as to assay: native gel or EMSA; complexes formed on IRDye-labelled 2xCSL and 1xSPS DNA probes in the same binding reaction; RBPJ/Su(H) 10 to 320 nM, 1 µM NICD/Mastermind; native polyacrylamide gel
What all share (details): both partners purified

Assay [1] concerns the target T1, mouse RBPJ (aa 53–474) (mouse, UniProt P31266 53-474).
T1 construct: RBPJ, mouse, residues 53-474; also called CSL

Assay [2] addresses T2, fly NICD (aa 1763–2412) (Drosophila, UniProt P07207 1763-2412).
T2 construct: Notch intracellular domain, Drosophila, residues 1763-2412; not the full-length NICD; also called Notch intracellular domain
T2 sequence (looked up): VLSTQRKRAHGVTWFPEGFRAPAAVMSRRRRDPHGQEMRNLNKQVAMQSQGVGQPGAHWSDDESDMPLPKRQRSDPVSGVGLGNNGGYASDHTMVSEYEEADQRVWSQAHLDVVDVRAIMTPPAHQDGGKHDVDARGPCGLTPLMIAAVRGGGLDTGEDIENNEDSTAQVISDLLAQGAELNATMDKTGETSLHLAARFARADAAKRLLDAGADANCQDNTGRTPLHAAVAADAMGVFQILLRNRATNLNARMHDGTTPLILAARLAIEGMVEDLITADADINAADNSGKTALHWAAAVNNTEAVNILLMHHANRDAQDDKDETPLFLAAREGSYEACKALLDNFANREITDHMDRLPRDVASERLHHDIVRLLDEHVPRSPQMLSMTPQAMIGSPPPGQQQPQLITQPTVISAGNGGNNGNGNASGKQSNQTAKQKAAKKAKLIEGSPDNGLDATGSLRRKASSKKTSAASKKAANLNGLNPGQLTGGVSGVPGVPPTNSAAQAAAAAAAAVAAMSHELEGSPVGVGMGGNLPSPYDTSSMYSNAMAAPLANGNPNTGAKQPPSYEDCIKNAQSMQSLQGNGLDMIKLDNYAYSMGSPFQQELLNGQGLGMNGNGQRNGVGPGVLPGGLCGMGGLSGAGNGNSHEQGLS

Assay [3] concerns the target B2.

T1 sequence (P31266 53-474): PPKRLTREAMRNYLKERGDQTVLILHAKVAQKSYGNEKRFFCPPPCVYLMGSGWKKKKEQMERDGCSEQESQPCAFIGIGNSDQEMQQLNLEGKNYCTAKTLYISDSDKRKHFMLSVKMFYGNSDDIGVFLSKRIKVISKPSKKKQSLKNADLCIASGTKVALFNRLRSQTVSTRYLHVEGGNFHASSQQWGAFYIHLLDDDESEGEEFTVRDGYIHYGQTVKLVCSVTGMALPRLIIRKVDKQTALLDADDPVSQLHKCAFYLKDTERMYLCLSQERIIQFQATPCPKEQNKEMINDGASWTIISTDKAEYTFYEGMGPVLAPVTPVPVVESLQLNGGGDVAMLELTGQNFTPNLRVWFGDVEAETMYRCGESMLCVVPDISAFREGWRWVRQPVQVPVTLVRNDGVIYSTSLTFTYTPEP

B1: mouse N1ICD (aa 1744–2113) (domain or fragment, UniProt Q01705 1744-2113, looked up)
chain: VLLSRKRRRQHGQLWFPEGFKVSEASKKKRREPLGEDSVGLKPLKNASDGALMDDNQNEWGDEDLETKKFRFEEPVVLPDLSDQTDHRQWTQQHLDAADLRMSAMAPTPPQGEVDADCMDVNVRGPDGFTPLMIASCSGGGLETGNSEEEEDAPAVISDFIYQGASLHNQTDRTGETALHLAARYSRSDAAKRLLEASADANIQDNMGRTPLHAAVSADAQGVFQILLRNRATDLDARMHDGTTPLILAARLAVEGMLEDLINSHADVNAVDDLGKSALHWAAAVNNVDAAVVLLKNGANKDMQNNKEETPLFLAAREGSYETAKVLLDHFANRDITDHMDRLPRDIAQERMHHDIVRLLDEYNLVRSPQ
notes: Notch1 intracellular domain, mouse, residues 1744-2113; not the full-length NICD; also called N1ICD1; NICD
On to B1, for which the binding result in assay [1] was “binds”.

As for B2, the binding result in assay [2] is recorded as “binds”.

B3: human MAML1 (aa 1–280) (domain or fragment, UniProt Q92585 1-280, looked up)
chain: MVLPTCPMAEFALPRHSAVMERLRRRIELCRRHHSTCEARYEAVSPERLELERQHTFALHQRCIQAKAKRAGKHRQPPAATAPAPAAPAPRLDAADGPEHGRPATHLHDTVKRNLDSATSPQNGDQQNGYGDLFPGHKKTRREAPLGVAISSNGLPPASPLGQSDKPSGADALQSSGKHSLGLDSLNKKRLADSSLHLNGGSNPSESFPLSLNKELKQEPVEDLPCMITGTVGSISQSNLMPDLNLNEQEWKELIEELNRSVPDEDMKDLFNEDFEEKKD
notes: Mastermind-like protein 1, human, residues 1-280; not the full-length protein; The results list MAML1 among the 'mouse' proteins, the methods say human MAML1; also called Mastermind
On to B3, for which, in assay [1], the binding result is “binds”.

B4: fly Mastermind (aa 87–307) (domain or fragment, Drosophila, UniProt P21519 87-307, looked up)
chain: PYNANLGATGGIAGITGGNGAGGPTNPGAVPTAPGDTMPTKRMPVVDRLRRRMENYRRRQTDCVPRYEQAFNTVCEQQNQETTVLQKRFLESKNKRAAKKTDKKLPDPSQQHQQQQHQQQQQHQQHQQHQQAQTMLAGQLQSSVHVQQKFLKRPAEDVDNGPDSFEPPHKLPNNNNNSNSNNNNGNANANNGGNGSNTGNNTNNNGNSTNNNGGSNNNGSE
notes: Mastermind, Drosophila, residues 87-307; not the full-length protein; also called Mam
For the molecule B4, in assay [3], the binding result is “binds”.

Values taken from paper PMC7213981, “Enhancer architecture sensitizes cell specific responses to Notch gene dose via a bind and discard mechanism” (eLife, 2019).
